Laboratory results taken from patent US20240409645A1 (DUALYX, published 2024).

Experiments:
[1] = biological target: T1, human IL-2Rγ (common cytokine receptor γ-chain) (human, UniProt P31785 23-262, limits assumed); assay: SPR off-rate ranking, periplasmic extract on immobilised protein
T1 construct: Recombinant protein coated on the plate or immobilised on a CM5 chip; also called hu IL-2R; CD132
T1 sequence: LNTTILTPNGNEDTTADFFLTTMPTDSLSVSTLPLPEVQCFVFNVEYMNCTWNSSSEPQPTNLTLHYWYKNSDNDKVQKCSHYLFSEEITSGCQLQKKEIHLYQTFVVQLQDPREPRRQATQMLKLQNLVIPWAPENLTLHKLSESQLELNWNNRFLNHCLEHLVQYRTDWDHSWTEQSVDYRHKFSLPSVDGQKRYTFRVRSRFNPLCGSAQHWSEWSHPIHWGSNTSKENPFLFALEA
Procedure: (§1) SPR was performed to determine dissociation rates using Biacore 3000 instrument (GE Healthcare). Briefly, human and mouse IL-2R proteins were immobilized on carboxylmethyl dextran sensor chip (CM5) at approximately 2500 RUs using amine coupling in acetate buffer (GE Healthcare). The VHH-containing P.E. were loaded with a flow rate of 30 uL/min and the off-rates were measured over a 120s period.

[2] = biological target: T1, human IL-2Rγ (common cytokine receptor …); assay: PE binding ELISA, periplasmic extract on coated protein
Procedure: (§2) In a binding ELISA, human or mouse IL-2Rα, IL-2Rβ and IL-2Rγ proteins were coated directly on maxisorp microtiter plates overnight at 4° C. Free binding sites were blocked using 4% Marvel in PBS for 1 hour. Next, 1:5 dilution of P.E. in 1% Marvel/PBS were added to wells and incubated for 1 hour. […] Binding specificity was determined based on O.D. at 450 nm values compared to negative controls.

human IL-2Rα [3] = biological target: T2, human IL-2Rα (human, UniProt P01589 22-240, limits assumed); assay: ELISA, P.E. on coated antigen
T2 construct: recombinant protein; also called hu IL-2R; human IL-2Ra
T2 sequence: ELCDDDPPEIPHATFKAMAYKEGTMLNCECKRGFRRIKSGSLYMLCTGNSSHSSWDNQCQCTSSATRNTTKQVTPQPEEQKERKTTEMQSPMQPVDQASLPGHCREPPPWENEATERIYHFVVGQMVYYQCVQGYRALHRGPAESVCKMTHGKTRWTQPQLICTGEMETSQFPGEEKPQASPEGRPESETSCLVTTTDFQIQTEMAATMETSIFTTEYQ
Procedure: as §2

human IL-2Rα [4] = biological target: T2, human IL-2Rα; assay: SPR, P.E. on immobilised antigen
Procedure: as §1

Binder	koff [1] [s⁻¹]	OD (PE binding ELISA) [2] [OD450 nm]	OD (PE binding ELISA) (human IL-2Rα [3]) [OD450 nm]	koff (human IL-2Rα [4]) [s⁻¹]
FJ1427_P035MP04A04 (VHH, VHH in periplasmic extract; also called clone nr) VHH: QVQLVESGGGLVQAGESLRLSCAASGPTASRVAVAWFRQVPGKEREFVAVVNRPGTMTKYADSVKGRFTISRDSAKNTVYLQMNSLKPEDTAVYYCAADSVPYGRPYYFQTSAGNYDYWGQGTQVTVSS	0.0378	1.31		
FJ1427_P035MP04G09 (VHH, VHH in periplasmic extract; also called clone nr) VHH: QVQLQESGGGLVQAGGSLRLSCAASGPTFSRVAVGWFRQVPGKEREFVAAVNRPATMTKYADSVKGRFTISRDNAKNTVDLQMNSMKPEDTAVYYCAADSVPYGRPYYFQTSAGEYDYWGQGTQVTVSS	0.0658	0.559		
FJ1427_P035MP04C11 (VHH, VHH in periplasmic extract; also called clone nr) VHH: QVQLVESGGGLVQHGGSLRLSCAASGPTFSRVAVGWFRQVPGKEREFVAVVNRPGSMTKYADSVKGRFNISRDTAKNTVYLQMNSLKPEDTAVYYCAADSVPYGRPYYFTTSAGDYDYWGQGTQVTVSS	0.0693	0.912		
FJ1427_P035MP01D09 (VHH, periplasmic extract; also called clone nr; 68) VHH: QVQLVESGGGLVQPGGSLRLSCAASGFTFSNNFMSWVRQAPGKGLEWVSTISYGGESTTYAESVKGRFTISRDNAKNTLYLQMNNLKPEDTAVYYCAKATSYDSIRSGSRGQGTQVTVSS			2.57	0.00212
2-MP01A02 (VHH, periplasmic extract; also called FJ1427_P035MP01A02) VHH: QVQLVESGGGLVQPGGSLRLSCATSGFTFRNNFMSWVRQAPGKGLEWVSTISYGGESTTYAESVKGRFTISRDNAKNTLYLQMNNLKPEDTAVYYCAKATSYDSIRSGSRGQGTQVTVSS			2.62	0.00153
8-MP01C12 (VHH, periplasmic extract; also called FJ1427_P035MP01C12) VHH: QVQLVESGGGLVQPGGSLRLSCATSGFTFSNNFMSWVRQAPGKGLEFVSTISYGGESTTYAEAVKGRFTISRDNAKNTLYLQMNNLKPEDTAIYYCAKATSYTSIRGAPRGQGTQVTVSS			2.53	0.000383
1-MP01H01 (VHH, periplasmic extract; also called FJ1427_P035MP01H01) VHH: EVQLVESGGGLVQAGGSLRLSCAASGRTFRTHNMGWFRRAPGKEREFVAAISWNVDNTLYADSVKGRFTISRDNGRNMVYLQMNSLKPEDTAVYYCAADNIPLSSDVAATATEYDYWGQGTQVTVSS			1.71	0.0229
FJ1427_P035MP01H08 (VHH, periplasmic extract; also called clone nr; 64) VHH: EVQLVESGGRLVQSGGSLRLSCAASGRAFSTHNMGWFRRAPGKEREFVAAISWNVDNKLYANSVKGRFAISRDNGRNMVYLQMNSLKPEDTAVYYCAADNIPLSSDMRATATEYDVWGQGTQVTVSS			2.6	
FJ1427_P035MP01H11 (VHH, periplasmic extract; also called clone nr; 88) VHH: QVQLVESGGGLVQAGGSLRLSCAASGRTFRTHNMGWFRRAPGKEREFVAAISWNVDNTLYADSVKGRFTISRDNDRNMVYLQMNSLKPEDTAVYFCAADNIPLSSDVRATATEFGYWGQGTRVTVSS			2.62	0.000725
FJ1427_P035MP04D11 (VHH, VHH in periplasmic extract; also called clone nr) VHH: EVQLVESGGGLVQAGGSLRLSCAASGRTFGAVAVGWFRQVPGKEREFVAAINRSGSATKYADSVKGRFTISRDNAESPVFLQMNSLKPEDTAVYYCAADSLPYGRPYYFQTSAGEYDYWGQGTQVTVSS	0.0401	1.41		
32-MP04A08 (VHH, VHH in periplasmic extract; also called FJ1427_P035MP04A08; clone nr) VHH: QVQLVESGGGLVQAGGSLRLSCAASGRTFGSTAVGWFRQVPGKEREFVSAINRSGSATTYADSVKGRFTISRDNAKNTVYLQMNSLTPEDTGVYYCAADSLPYGRPYYFQRSAGEYDYWGQGTQVTVSS	0.0616	0.407		
33-MP04C09 (VHH, VHH in periplasmic extract; also called FJ1427_P035MP04C09; clone nr) VHH: QLQLVESGGGLVQAGGSLRLSCAASGPTFSRVAVGWFRQAPGKEREFVAAVNRPATMTKYADSVKGRFTVSRDNAKNTVDLQMNSMKPEDTAVYYCAADSVPYGRPYYWQTSAGDYDYWGQGTQVTVSS	0.031	1.69		

The next lines start with the values.

koff [1] [s⁻¹]	OD (PE binding ELISA) [2] [OD450 nm]	OD (PE binding ELISA) (human IL-2Rα [3]) [OD450 nm]	koff (human IL-2Rα [4]) [s⁻¹]	Binder
0.0195	0.579			FJ1427_P035MP04D08 (VHH, VHH in periplasmic extract; also called clone nr) VHH: QVQLVESGGGLVQAGESLRLSCAASGPTASRVAVAWFRQVPGKEREFVAVVNRPGTMTKYADSVKGRFTISRDSAKNTVYLQMNSLKPEDTAVYYCAADSVPYGRPYYFQTSAGNYDYWGQGTQVTVSS
0.0165	0.593			FJ1427_P035MP04A11 (VHH, VHH in periplasmic extract; also called clone nr) VHH: QVQLVESGGGLVQAGESLRLSCAASGPTASRVAVAWFRQVPGKEREFVAVVNRPGTMTKYADSVKGRFTISRDSAKNTVYLQMNSLKPEDTAVYYCAADSVPYGRPYYFQTSAGNYDYWGQGTQVTVSS
0.0421	1.37			FJ1427_P035MP04B03 (VHH, VHH in periplasmic extract; also called clone nr) VHH: QVQLQESGGGLVQAGESLRLSCAASGPTASRVAVAWFRQVPGKEREFVAVVNRPGTMTKYADSVKGRFTISRDSAKNTVYLQMNSLKPEDTAVYYCAADSVPYGRPYYFQTSAGNYDYWGQGTQVTVSS
0.048	1.3			FJ1427_P035MP04H08 (VHH, VHH in periplasmic extract; also called clone nr) VHH: EVQLVESGGGLVQAGESLRLSCAASGPTASRVAVAWFRQVPGKEREFVAVVNRPGTMTKYADSVKGRFTISRDSAKNTVYLQMNSLKPEDTAVYYCAADSVPYGRPYYFQTSAGNYDYWGQGTQVTVSS
		2.84	0.00144	FJ1427_P035MP01C03 (VHH, periplasmic extract; also called clone nr; 19) VHH: EVQLVESGGGLVQPGGSLRLSCATSGFTFRNNFMSWVRQAPGKGLEWVSTISYGGESTTYAESVKGRFTISRDNAKNTLYLQMNNLKPEDTAVYYCAKATSYDSIRSGSRGQGTQVTVSS
		2.59	0.00189	FJ1427_P035MP01D03 (VHH, periplasmic extract; also called clone nr; 20) VHH: EVQLVESGGGLVQPGGSLRLSCATSGFTFRNNFMSWVRQAPGEGLEWVSTISYGGESTTYAESVKGRFTISRDNAKNTLYLQMNNLKPEDTAVYYCAKATSYDSIRSGSRGQGTQVTVSS
		2.52	0.000414	FJ1427_P035MP01G01 (VHH, periplasmic extract; also called clone nr) VHH: QVQLQESGGGLVQAGGSLRLSCAASGRTFRTHNMGWFRRAPGKEREFVAAISWNVDNTLYADSVKGRFTISRDNDRNMVYLQMNSLKPEDTAVYFCAADNIPLSSDVRATATEFGYWGQGTRVTVSS
		2.62	0.000842	FJ1427_P035MP01D08 (VHH, periplasmic extract; also called clone nr; 60) VHH: EVQLVESGGGLVQAGGSLRLSCAASGGTFRTRNMGWFRRAPGKEREFVAAVSWNVDNKLYAGSVKGRFTISRDNGRNMVYLQMNSLKPEDTAVYYCAADNIPLSSDMRPTATEYDYWGQGTQVTVSS
		2.59	0.000498	FJ1427_P035MP01E05 (VHH, periplasmic extract; also called clone nr; 37) VHH: QVQLVESGGGLVQAGGSLRLSCAASGRTFRTHNMGWFRRAPGEEREFVAVISWNVDNKLYADSVKGRFTISRDNGRNMVYLQMNSLKPEDTAVYYCAADNIPLSSDVRATATEFGYWGQGTQVTVSS
0.0026	0.196			FJ1427_P035MP04F02 (VHH, VHH in periplasmic extract; also called clone nr) VHH: QLQLVESGGGLVQAGGSLTLSCAASGRTFSRDVVGWFRQAPGKEREFVASISRSGDGTFYTDSVKGRFTISSRDNAKNTVLLQMNSLKVEDTAVYYCAAGDGWSTYDYWGQGTQVTVSS
0.0103	1.77			FJ1427_P035MP04H11 (VHH, VHH in periplasmic extract; also called clone nr) VHH: QVQLVESGGGWVQVGESPRLSCAPSGRTFVSGIMGWFRQTPGKEREFVARIILNNNSTRYTDSVKGRFTISRDSAKNTMYLQMNTLRPEDTAVYYCAARDRYGSGNSLSPSAYDYWGQGTQVTVSS
0.0576	1.23			FJ1427_P035MP04A09 (VHH, VHH in periplasmic extract; also called clone nr) VHH: QVQLVESGGGLVQAGGSLRLSCAASGRTFGAVAVGWFRQVPGKEREFVAAINRNGSATKYADSAKGRFTISRDNAESPVYLQMNSLKPEDTAIYYCAADSLPYGRPYYFQTSAGEYDYWGQGTQVTVSS
		2.47		FJ1427_P035MP01H10 (VHH, periplasmic extract; also called clone nr; 80) VHH: QVQLVESGGGLVETGGSLRLSCAASGITFNDHTMAWFRQAPGKEREFVAARDWSDIITRYASSVKGRFTISRDNAGNTGFLQMNSLRPEDTAVYYCAAREGGVVAGVRSGAPYDYWGQGTQVTVSS
